Where a chain is given by its changes, count along the chain named.
B1: SRP2194-A03 (antibody, IgG1, V domains shown)
VH: EVQLVESGGGLVQPGGPLRLSCAASGFNITGYYIHWVRQAPGKGLEWVGYITPNSGTTYSADSVKGRFTISADTSKNTAYLQMNSLRAEDTAVYYCARDSRRYVRPLDYWGQGTLVTVSS
VL: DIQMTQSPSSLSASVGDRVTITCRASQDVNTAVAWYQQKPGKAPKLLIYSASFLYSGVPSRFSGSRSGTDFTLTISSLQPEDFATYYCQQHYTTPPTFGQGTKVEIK
notes: His/FLAG-tagged IgG1, cell-free
B2: SRP2196-A01 (antibody, V domains shown)
VH: B1 VH with P17S, Y50Q, T52S, T57Y, S60Y, P106G, L107W
VL: QAVVTQESALTTSPGETVTLTCRSSTGAVTTSNYANWVQEKPDHLFTGLIGGTNKRAPGVPARFSGSLIGDKAALTITGAQTEDEAIYFCALWYSNLWVFGGGTKLTVL
notes: His/FLAG-tagged IgG1
B3: SRP2194-A11 (antibody, IgG1, V domains shown)
VH: B1 VH with P17S, G31Q, T52S, T57Y, Y59T, S60D, L107F
VL: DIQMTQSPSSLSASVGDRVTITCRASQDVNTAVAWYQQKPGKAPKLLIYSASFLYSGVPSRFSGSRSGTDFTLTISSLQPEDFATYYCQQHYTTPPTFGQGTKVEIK
notes: His/FLAG-tagged IgG1, cell-free; also called Antibody 135
B4: SRP2194-A09 (antibody, IgG1, V domains shown)
VH: B1 VH with P17S, N54L, T57A, S60R, L107F
VL: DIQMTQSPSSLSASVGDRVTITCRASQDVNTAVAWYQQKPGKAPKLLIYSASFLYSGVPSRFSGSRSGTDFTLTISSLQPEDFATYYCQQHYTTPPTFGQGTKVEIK
notes: His/FLAG-tagged IgG1, cell-free; also called Antibody 130
B5: SRP2194-A10 (antibody, IgG1, V domains shown)
VH: B1 VH with P17S, G31Q, G42A, T52S, T57S, Y59H, S60I, L107F, G113S
VL: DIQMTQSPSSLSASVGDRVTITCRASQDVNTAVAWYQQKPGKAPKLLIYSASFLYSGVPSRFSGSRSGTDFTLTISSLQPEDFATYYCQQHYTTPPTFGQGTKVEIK
notes: as for B1
B6: SRP2194-A08 (antibody, IgG1, V domains shown)
VH: B1 VH with P17S, Y33H, T52A, N54S, T57Y, S60D, L107F
VL: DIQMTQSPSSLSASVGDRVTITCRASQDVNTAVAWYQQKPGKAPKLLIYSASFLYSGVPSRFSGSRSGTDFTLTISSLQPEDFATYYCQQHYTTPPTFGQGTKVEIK
notes: as for B1
B7: SRP2196-A02 (antibody, V domains shown)
VH: B1 VH with P17S, Y50Q, T52S, T57A, Y59H, S60D, P106G, L107W
VL: B2 VL
notes: His/FLAG-tagged IgG1
B8: SRP1943-C02 (antibody, IgG1, V domains shown)
VH: EVQLVESGGGLAQPGGSLRLSCAAPGFNINDYYIHWVRQAPGKGLEWVGAIDPNSGSTDYADSVKGRFAISADTSKNTAYLQMNSLRAEDTAVYYCARSRWFRVLWSYVFDYWGQGTLVTVSS
VL: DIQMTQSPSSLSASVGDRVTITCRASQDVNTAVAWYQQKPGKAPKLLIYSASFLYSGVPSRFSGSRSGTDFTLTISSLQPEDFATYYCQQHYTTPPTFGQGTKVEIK
notes: Parent of SRP2193; His/FLAG-tagged IgG1, cell-free; also called Antibody 70
B9: SRP2193-E04 (antibody, IgG1, V domains shown)
VH: B8 VH with A12V, P25S, Y32R, A50V, N54S, S55L, D59I, Y60D, A69T, K76R
VL: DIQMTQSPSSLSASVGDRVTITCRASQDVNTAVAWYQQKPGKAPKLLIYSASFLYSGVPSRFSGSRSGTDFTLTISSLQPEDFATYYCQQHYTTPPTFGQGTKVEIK
notes: His/FLAG-tagged IgG1, cell-free; also called Antibody 74
B10: SRP2193-B05 (antibody, IgG1, V domains shown)
VH: EVQLVESGGGLVQPGGSLRLSCAASGFNINQYYIHWVRQAPGEGLEWVGAIDPIGGSTHLADSVKGRFTISADTSKNTAYLQMNSLRAEDAAVYYCARSRWYRVLWSYVFDYWGQGTLVTVSS
VL: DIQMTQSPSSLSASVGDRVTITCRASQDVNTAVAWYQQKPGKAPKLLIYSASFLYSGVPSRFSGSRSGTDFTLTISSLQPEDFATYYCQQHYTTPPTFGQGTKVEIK
notes: His/FLAG-tagged IgG1, cell-free; also called Antibody 109
B11: SRP2193-C01 (antibody, IgG1, V domains shown)
VH: B8 VH with A12V, P25S, F27L, Y32H, A50T, N54K, D59H, Y60V, A69T
VL: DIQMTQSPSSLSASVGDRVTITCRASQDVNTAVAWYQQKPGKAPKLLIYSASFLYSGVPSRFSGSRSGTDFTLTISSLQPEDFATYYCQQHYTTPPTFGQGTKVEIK
notes: as for B1
B12: SRP2193-E02 (antibody, IgG1, V domains shown)
VH: B8 VH with A12V, P25S, N30K, A50S, N54T, D59V, Y60I, A69T, F102W
VL: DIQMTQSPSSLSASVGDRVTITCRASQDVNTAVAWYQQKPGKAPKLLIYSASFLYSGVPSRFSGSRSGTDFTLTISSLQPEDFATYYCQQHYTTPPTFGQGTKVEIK
notes: as for B1
B13: SRP2193-B10 (antibody, IgG1, V domains shown)
VH: B8 VH with A12V, P25S, N30A, I34V, S57Y, D59V, Y60K, A69T, F102L, Y108F
VL: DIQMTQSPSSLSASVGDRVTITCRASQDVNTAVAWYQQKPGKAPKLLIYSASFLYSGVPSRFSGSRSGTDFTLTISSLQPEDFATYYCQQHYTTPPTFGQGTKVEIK
notes: His/FLAG-tagged IgG1, cell-free; also called Antibody 88
B14: SRP2193-D07 (antibody, IgG1, V domains shown)
VH: EVQLVESGGGLVQPGGSLRLSCAASGFNIIDYNIHWVRQAPGKGLEWVTAIGPADGSTVNADSLKGRFTISADTSKNTAYLQMNSLRAEDTAVYYCARSRWLRVLWSYVFDYWGQGTLVTVSS
VL: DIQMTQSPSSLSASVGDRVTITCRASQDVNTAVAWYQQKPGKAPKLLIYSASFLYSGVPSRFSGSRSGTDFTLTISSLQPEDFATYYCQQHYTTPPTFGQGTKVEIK
notes: as for B1
B15: SRP2193-E10 (antibody, IgG1, V domains shown)
VH: B10 VH with N30Y, Q31D, E43K, I54V, G55N, H59N, L60N, A91T
VL: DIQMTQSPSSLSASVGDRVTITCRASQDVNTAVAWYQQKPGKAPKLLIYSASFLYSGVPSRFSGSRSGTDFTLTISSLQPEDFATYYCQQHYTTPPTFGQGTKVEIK
notes: His/FLAG-tagged IgG1, cell-free; also called Antibody 72
B16: SRP2193-C06 (antibody, IgG1, V domains shown)
VH: EVQLVESGGGLVQPGGSLRLSCAASGFNIIVHYIHWVRQAPGKGLEWVSAIDPISGSTQWADSVKGRFTISADTSKNTAYLQMNSLRAEDTAVYYCARSRWRRALWIYVFDYWGQGTLVTVSS
VL: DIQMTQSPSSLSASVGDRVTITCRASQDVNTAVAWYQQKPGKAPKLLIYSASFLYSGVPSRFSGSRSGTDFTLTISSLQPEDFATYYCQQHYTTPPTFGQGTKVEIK
notes: as for B1
B17: SRP2193-D11 (antibody, IgG1, V domains shown)
VH: B8 VH with L11S, A12V, P25S, D31A, S55T, D59V, Y60D, A69T
VL: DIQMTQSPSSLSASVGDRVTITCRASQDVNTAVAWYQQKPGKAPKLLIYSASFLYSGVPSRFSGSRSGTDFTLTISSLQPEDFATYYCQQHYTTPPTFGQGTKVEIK
notes: His/FLAG-tagged IgG1, cell-free; also called Antibody 76
B18: SRP2193-B08 (antibody, IgG1, V domains shown)
VH: EVQLVESGGGLVQPGGSLRLSCAASGFNIKDYYIHWVRQAPGKGLEWVSAIDPSPGATLDADSVKGRFTISADTSKNTAYLQMNSLRAEDTAVYYCARSRWFRVLWSYALDYWGQGTLVTVSS
VL: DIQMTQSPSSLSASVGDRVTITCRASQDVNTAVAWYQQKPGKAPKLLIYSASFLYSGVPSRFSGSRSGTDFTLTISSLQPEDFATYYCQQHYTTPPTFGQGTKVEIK
notes: His/FLAG-tagged IgG1, cell-free; also called Antibody 90
B19: SRP2193-C05 (antibody, IgG1, V domains shown)
VH: EVQLVESGGGLVQPGGSLRLSCAASGFNIKHSYIHWVRQAPGKGLEWVGAIDPHNGSTASADSVKGRFTISADTSKNTAYLQMNSLRAEDTAVHYCARSRWFRVLWSYVIDYWGQGTLVTVSS
VL: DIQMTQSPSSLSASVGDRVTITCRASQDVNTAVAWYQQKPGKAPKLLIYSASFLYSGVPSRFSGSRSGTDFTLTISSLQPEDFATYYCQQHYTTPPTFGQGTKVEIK
notes: His/FLAG-tagged IgG1, cell-free; also called Antibody 91
B20: SRP2193-B07 (antibody, IgG1, V domains shown)
VH: B8 VH with A12V, P25S, D31N, Y32S, D59L, Y60S, A69T, N77S, V109I
VL: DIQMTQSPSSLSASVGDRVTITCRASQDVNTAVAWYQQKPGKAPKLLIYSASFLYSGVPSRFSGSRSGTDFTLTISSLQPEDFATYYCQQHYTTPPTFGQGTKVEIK
notes: as for B1
B21: SRP2193-D03 (antibody, IgG1, V domains shown)
VH: B16 VH with I30N, V31D, I54N, S55T, Q59V, W60N, R102S, A104V
VL: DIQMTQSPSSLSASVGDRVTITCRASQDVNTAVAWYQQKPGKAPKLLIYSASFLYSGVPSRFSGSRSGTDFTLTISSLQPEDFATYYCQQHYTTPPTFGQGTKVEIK
notes: His/FLAG-tagged IgG1, cell-free; also called Antibody 93
B22: SRP2193-C03 (antibody, IgG1, V domains shown)
VH: B19 VH with K30N, H31Y, D52E, H54K, N55S, T91A, H94Y, F102Y, I110L
VL: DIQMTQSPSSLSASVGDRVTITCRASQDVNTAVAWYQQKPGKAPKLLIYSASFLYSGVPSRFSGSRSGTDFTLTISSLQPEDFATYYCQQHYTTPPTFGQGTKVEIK
notes: as for B1
B23: SRP2193-C08 (antibody, IgG1, V domains shown)
VH: B8 VH with G9S, A12V, P25S, D31H, N54Y, S55P, D59Y, Y60N, A69T
VL: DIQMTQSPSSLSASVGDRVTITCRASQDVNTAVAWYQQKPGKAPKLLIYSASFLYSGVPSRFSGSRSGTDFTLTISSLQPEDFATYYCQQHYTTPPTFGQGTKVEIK
notes: His/FLAG-tagged IgG1, cell-free; also called Antibody 99
B24: SRP2193-E09 (antibody, IgG1, V domains shown)
VH: B10 VH with S21P, N30G, Q31A, E43K, I54G, G55S, S57Y, H59V, L60P, A91T
VL: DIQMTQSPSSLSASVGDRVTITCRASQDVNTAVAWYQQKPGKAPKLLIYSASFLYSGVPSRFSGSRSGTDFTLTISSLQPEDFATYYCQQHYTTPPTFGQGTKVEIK
notes: as for B1
B25: SRP2193-C10 (antibody, IgG1, V domains shown)
VH: EVQLVESGGGLVQPGGSLRLSCAASGFNINNAYIHWVRQAPGKGLEWVGAIDPRSGSTISADSMKGRFTISADTSKNTAYLQMNSLRAEDTAVYYCARSRWFRVLWSFGFDYWGQGTLVTVSS
VL: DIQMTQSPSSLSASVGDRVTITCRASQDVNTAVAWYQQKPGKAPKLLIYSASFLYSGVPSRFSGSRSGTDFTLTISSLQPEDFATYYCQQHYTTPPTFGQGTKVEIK
notes: His/FLAG-tagged IgG1, cell-free; also called Antibody 123

Experiments:
human ROR1 (hROR1) = biological target: T1, human ROR1 (hROR1) (human, UniProt Q01973 30-937); assay: flow cytometry, HCT116-hROR1 cells
T1 construct: On HCT116-hROR1 transfectants, Mino cells or Ntera-2 cells, as the assay of each row says; also called receptor tyrosine kinase like orphan receptor 1
Experimental: A mix of ROR1 positive and negative cells was prepared as follows. Ror1 negative cells were washed 2× in PBS then incubated in PBS containing 1 nM CellTrace™ Oregon Green488® (Life Technologies) at 37° C. for 30 minutes. Cells were then washed 2× with RPMI w/10% fetal calf serum (or FCS), washed 2× with FACS buffer (PBS+0.5% BSA), suspended thoroughly in ice-cold FACS buffer at a final concentration of 4×10^6 cells/ml and kept on ice. ROR1 positive cells were washed 2× in PBS and suspended with ice-cold FACS buffer at 4×10^6 cells/ml. ROR1 positive and negative cells were then mixed to obtain a 1-1 cell suspension and seeded at 50 μl per well on 96 well polypropylene plates. 50 μl of 6-12 point dilutions of anti-ROR1 variants starting from concentrations of ˜100-200 nM antibody was dispensed using BioMekFX (Beckman Coulter) into each well. Cells were then incubated on ice for 1 hr, washed with FACS buffer and incubated for 1 hr on ice with 50 μl FACS buffer containing 2.5 μg/ml Alexa647-conjugated Goat Anti-Human IgG dispensed using BioMekFX (Beckman Coulter). Cells were then washed 2× with FACS buffer and fixed for 10 minutes in 200 μl PBS with 2% PFA prior to fluorescence detection. Samples were acquired using a Beckton Dickinson LSRII FACS. Mean Fluorescence Intensity of ROR1 antibody binding was analyzed using FlowJo® software (Tree Star, Inc.).

[1] = biological target: T2, human ROR1 Frizzled domain (hROR1-Fz) (human, UniProt Q01973 165-305); assay: SPR Biacore, IgG on anti-Fc, ROR1-Fz analyte
T2 construct: Acro Biosystems, made in HEK293
Experimental: Anti-Fc polyclonal antibodies were immobilized onto a CMS chip (GE Life Sciences) using amine coupling chemistry (from Amine Coupling Kit, GE Life Sciences). The immobilization steps were carried out at a flow rate of 25 μL/min in 1×HBS-EP+buffer (GE Life Sciences; 10× Stock diluted before use). The sensor surfaces were activated for 7 min with a mixture of NHS (0.05 M) and EDC (0.2 M). The Anti-Fc antibodies were injected over all 4 flow cells at a concentration of 25 ug/ml in 10 mM sodium acetate, pH 4.5, for 7 min. Ethanolamine (1 M, pH 8.5) was injected for 7 min to block any remaining activated groups.
Off-rate and kinetic binding experiments were performed at 25° C. using 1×HBS-EP+buffer. Test and control antibodies were injected over the anti-Fc surface at concentrations of 5-10 μg/mL for 12 seconds at a flow rate of 10 μL/min on flow cells 2, 3 and 4, followed by a buffer wash for 30 seconds at the same flow rate. […] After capturing ligand (antibody) on the anti-Fc surface, the analyte (hROR1, Fz or Kr domains, Acro Biosystems, Delaware) was bound for 180 seconds, followed by a 600 second dissociation phase at a flow rate of 50 μL/min. Between each ligand capture and analyte binding cycle, regeneration was carried out using 2 injections of 10 mM Glycine pH 2.0 for 30 seconds at 30 μL/min, followed by a 30 second buffer wash step.

Binder	Bmax (MFI) (human ROR1 (hROR1))	Kd (human ROR1 (hROR1)) [nM]	Kd [1] [nM]	koff [1] [s⁻¹]	kon [1] [M⁻¹ s⁻¹]
B1	7610	5.35			
B2	15800	0.3			
B3	8660	0.1			
B4	8240	0.13			
B5	8250	0.16			
B6	8250	0.3			
B7	15200	0.2			
B8			97.6	0.05	539000
B9	14400	15.6			
B10	15400	0.47			
B11	15900	0.39			
B12	16400	8.13			
B13	14700	1.08			
B14	15400	3.11			
B15	15900	7.14			
B16	14500	4.16			
B17	15200	1.25			
B18	14300	1.15			
B19	15100	1.75			
B20	15500	0.6			
B21	15700	0.93			
B22	15700	0.14			
B23	15000	0.72			
B24	16300	0.46			
B25	16600	0.32			
